The results in this text go back to US20170101472A1 (Regeneron, published 2017).

Test [1] addresses T1, recombinant human LAG3 expressed with a C-terminal myc-myc-hexahistidine tag (human, UniProt P18627 29-450).
T1 construct: also called hLAG3-mmh; hLAG3.mmh
Kind of test: SPR, mAb captured, 37 C. How it is done:
(§1) The BiaCore sensor surface was derivatized with either a polyclonal rabbit anti-mouse antibody (GE, # BR-1008-38) or with a monoclonal mouse anti-human Fc antibody (GE, # BR-1008-39) to capture approximately 50-85 RUs of anti-LAG3 monoclonal antibodies, expressed with either a mouse Fc or a human Fc, respectively. […] The binding of the LAG3 reagents to captured monoclonal antibodies was monitored for 4 minutes while their dissociation from the antibodies was monitored for 8 minutes in HBST running buffer (0.01 M HEPES pH 7.4, 0.15 M NaCl, 3 mM EDTA, 0.05% v/v Surfactant P20). Experiments were performed at 25° C. and 37° C. Kinetic association (kₐ) and dissociation (kd) rate constants were determined by processing and fitting the data to a 1:1 binding model using Scrubber 2.0c curve fitting software. Binding dissociation equilibrium constants (KD) and dissociative half-lives (t_{1/2}) were then calculated from the kinetic rate constants as: KD (M)=kd/kₐ and t_{1/2} (min)=[ln2/(60*kd)].

Test [2] concerns the target T2, recombinant human LAG3 expressed with a C-terminal mouse IgG2a mFc tag (human).
T2 construct: Called dimeric; also called hLAG3-mFc; hLAG3 dimer
T2 chain: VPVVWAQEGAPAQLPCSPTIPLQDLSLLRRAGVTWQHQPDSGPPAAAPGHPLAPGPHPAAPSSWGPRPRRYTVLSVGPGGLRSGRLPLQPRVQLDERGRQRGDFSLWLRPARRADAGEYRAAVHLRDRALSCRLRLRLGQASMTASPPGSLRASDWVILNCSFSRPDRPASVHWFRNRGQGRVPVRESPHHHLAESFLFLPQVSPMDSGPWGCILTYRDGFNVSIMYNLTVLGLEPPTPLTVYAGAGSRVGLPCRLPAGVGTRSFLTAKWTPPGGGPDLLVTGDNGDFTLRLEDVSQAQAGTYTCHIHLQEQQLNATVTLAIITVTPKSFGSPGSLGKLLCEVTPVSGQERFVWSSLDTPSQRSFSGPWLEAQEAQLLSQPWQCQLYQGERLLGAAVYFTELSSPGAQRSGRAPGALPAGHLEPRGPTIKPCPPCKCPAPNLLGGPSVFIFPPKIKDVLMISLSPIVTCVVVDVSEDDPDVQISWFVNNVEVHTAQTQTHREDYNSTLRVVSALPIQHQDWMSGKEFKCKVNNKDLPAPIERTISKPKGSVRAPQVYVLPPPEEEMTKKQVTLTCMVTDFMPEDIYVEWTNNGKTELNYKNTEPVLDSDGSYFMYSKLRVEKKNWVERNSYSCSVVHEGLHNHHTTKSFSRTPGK
Description: SPR, mAb captured, 37 C. As for the experimental part: as §1

Test [3] concerns the target T3, human LAG3 expressed on HEK293 cells (human, UniProt P18627 23-525).
T3 construct: also called hLAG3; HEK293/hLAG3
T3 sequence: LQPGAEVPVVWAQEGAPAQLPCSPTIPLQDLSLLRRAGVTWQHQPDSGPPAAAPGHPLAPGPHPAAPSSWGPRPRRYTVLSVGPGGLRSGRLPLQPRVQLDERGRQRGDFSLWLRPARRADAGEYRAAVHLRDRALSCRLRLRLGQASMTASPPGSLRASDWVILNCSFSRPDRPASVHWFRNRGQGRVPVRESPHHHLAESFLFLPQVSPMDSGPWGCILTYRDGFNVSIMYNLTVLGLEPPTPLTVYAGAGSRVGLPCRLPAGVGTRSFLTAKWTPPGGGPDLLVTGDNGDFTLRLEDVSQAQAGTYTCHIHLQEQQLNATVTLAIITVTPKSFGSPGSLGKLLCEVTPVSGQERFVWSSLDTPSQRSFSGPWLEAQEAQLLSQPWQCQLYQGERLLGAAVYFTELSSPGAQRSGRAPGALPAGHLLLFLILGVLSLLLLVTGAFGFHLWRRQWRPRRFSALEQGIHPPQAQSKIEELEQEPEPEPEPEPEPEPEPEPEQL
Kind of test: flow cytometry, HEK293/hLAG3 cells. How it is done: The serially diluted antibodies were added to the cell suspension and incubated for 15-30 minutes on ice. The cells were centrifuged and pellets were washed with staining buffer to remove unbound antibodies. […] The cells were centrifuged and pellets were washed with staining buffer to remove unbound secondary F(ab′)2 and fixed overnight with a 1:1 dilution of Cytofix (BD Biosciences, #554655) and staining buffer. Following day, fixed cells were centrifuged and pellets were washed with staining buffer, resuspended and filtered. Fluorescence measurements were acquired on HyperCyt® cytometer and analyzed in ForeCyt™ (IntelliCyt; Albuquerque, N. Mex.) to determine the mean fluorescence intensities (MFI). The EC₅₀ values were calculated from a four-parameter logistic equation over an 11-point response curve using GraphPad Prism. EC₅₀ was defined as the concentration of antibody at which 50% of maximal binding signal is detected. The MFI ratio for each antibody was calculated by dividing the MFI at 100 nM by MFI at 0 nM of antibody concentration.

Test [4] deals with T3, human LAG3 expressed on HEK293 cells. Kind of test: cell adherence assay, blocks A20 (mouse MHCII) cells on HEK293-hLAG3. As for the experimental part: Cells were plated into sterile Nunclon™ Delta 96-Well MicroWell™ Black Optical Bottom Plates (Thermo Scientific). The wells from the perimeter of the plate were not included in the assay design to avoid edge effects.
On the day of treatment, all antibodies were serially (1:3) diluted in RPMI media (without FBS or supplements added). The 9-point dilution ranged between 45 pM to 300 nM, with the last dilution point containing no mAb. […] While the plated HEK293-LAG3 cells were incubating with the test or control antibodies, non-adherent B-cells (RAJI or A20) were labeled with Calcein AM using the following procedure. RAJI and A20 suspension cells were harvested and centrifuged at 1,200 rpm for 5 minutes. Cell pellets were resuspended in 1×PBS and counted. Cells were washed with RPMI, and resuspended in RPMI at a concentration of 10⁶ cells per 1 ml. Cells were labeled by adding 5 μL of Calcein AM per 1 ml of cell suspension and incubated for 30 min at 37° C., at 5% CO₂. […] Subsequently, 10 μL of BD Pharmingen Fc Block (0.5 mg/mL) was added per 1 ml of the Calcein AM labeled cells, which were incubated at RT for 10 minutes. The Calcein AM-stained, Fc-blocked RAJI or A20 cells were resuspended in RPMI to a final concentration of 3×10⁶ cells per 1 ml and subsequently used in the adherence assay.
The labeled suspension cells were incubated with the HEK293 monolayer for 1 hour at 37° C., at 5% CO₂.

B1: H4sH15462P (antibody, V domains shown)
VH: QVQLVQSGAEVKKPGASVKVSCKASGYTFTNYYIHWVRQAPGQGLDWMGIINPGGGNTNYAQKFLGRVTMTRDTSTTTVYMELSSLRSEDTAIYYCARENWNSYFDNWGQGTLVTVSS
VL: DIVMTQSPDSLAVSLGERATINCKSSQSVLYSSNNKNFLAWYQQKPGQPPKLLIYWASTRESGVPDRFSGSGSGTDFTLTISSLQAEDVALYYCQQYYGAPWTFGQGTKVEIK
notes: H4sH = human IgG4 Fc with 2 or more amino acid changes as disclosed in US20140243504
As to B1, in test [1], the Kd is 7.66 nM, the koff turned out to be 0.00772 s⁻¹, the on-rate (kon) came to 1.01e+06 M⁻¹ s⁻¹ and the t1/2 was found to be 1.5 min. Moreover, in test [2], the Kd turned out to be 0.876 nM, the off-rate constant (koff) was 0.00157 s⁻¹, the kon was 1.8e+06 M⁻¹ s⁻¹ and the t1/2 came to 7.3 min. Moreover, in test [3], the response was half-maximal at 0.665 nM (EC50) and the “Ratio of MFI (100 nM/0 nM)” value was found to be 182. The IC50 in test [4] was 3.6 nM.

B2: H4H17826P2 (antibody, human IgG4, V domains shown)
VH: EVQLVESGGGLVQPGGSLRLSCAASGFTFSSYEMNWVRQAPGKGLEWVSYISSSGNTKDYAGSVKGRVTISRDNAKNLLYLQMNSLRAEDTAVYHCARDGGHYDILTGSMSYYYYALDVWGQGTTVTVSS
VL: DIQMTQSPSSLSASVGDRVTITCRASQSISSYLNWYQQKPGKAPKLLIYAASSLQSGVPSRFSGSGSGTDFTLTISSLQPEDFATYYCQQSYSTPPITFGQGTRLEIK
notes: H4H = human IgG4 Fc with S108P hinge mutation
On to B2, for which, in test [1], the dissociation constant Kd came to 1.99 nM, the koff turned out to be 0.00214 s⁻¹, the kon worked out at 1.07e+06 M⁻¹ s⁻¹ and the t1/2 is 5.4 min. In test [2], the Kd was found to be 0.277 nM, the koff worked out at 0.000547 s⁻¹, the kon came to 1.98e+06 M⁻¹ s⁻¹ and the t1/2 is 21.1 min. Moreover, in test [3], the EC50 stood at 3.86 nM and the “Ratio of MFI (100 nM/0 nM)” value came out at 414. The molecule also had an IC50 in test [4] of 10 nM.

B3: H4H17819P (antibody, human IgG4, V domains shown)
VH: EVQLVESGGGLVQPGGSLRLSCVASGFTFSLYAMTWVRQVPGKGLEWVSTISGSGGGTYYTDSVKGRFTISRDNSKNTLYLQMNSLRADDTAVFYCTKESTTGTYSYFYGMDVWGQGTTVTVSS
VL: DIQMTQSPSSLSASVGDRVTITCRASQTISSYLNWYQQKPGKAPKLLIYAASSLQSGVPSRFSGSGSGTDFTLTLSGLQPEDFATYYCQQSYSTPLTFGGGTKVEIK
notes: as for B2
B3: in test [1], the Kd was determined as 0.552 nM, the koff came out at 0.000876 s⁻¹, the kon came to 1.59e+06 M⁻¹ s⁻¹ and the t1/2 was determined as 13.2 min. Further, in test [2], the Kd was determined as 0.317 nM, the koff was found to be 0.000527 s⁻¹, the on-rate (kon) was 1.66e+06 M⁻¹ s⁻¹ and the t1/2 was 21.9 min. Besides, in test [3], the EC50 is 2.79 nM and the “Ratio of MFI (100 nM/0 nM)” value is 436. The same molecule gave a 50% inhibitory concentration (IC50) in test [4] of 16 nM.

B4: H4H17823P (antibody, human IgG4, V domains shown)
VH: EVQLLESGGGLVQPGGSLRLSCAASGFTFRSYAMSWVRQAPGKGLEWVSVISGGGGRTYYTDSVKGRFTISRDNSKSMLYLQMNSLRAEDTAIYYCAKERVTGIDHYYYGVDVWGQGTTVTVSS
VL: DIQMTQSPSSLSASVGDRVTITCRASQSISSYLNWYQQKPGKAPKLLIYATSSLQSGVPSRFSGSASGTDFTLAISSLQPEDFATYYCQQSYTTPLTFGGGTKVEIK
notes: as for B2
Regarding B4, in test [1], the dissociation constant Kd was 0.524 nM, the koff was found to be 0.000924 s⁻¹, the kon was found to be 1.76e+06 M⁻¹ s⁻¹ and the t1/2 worked out at 12.5 min. Moreover, in test [2], the Kd was 0.437 nM, the koff worked out at 0.000585 s⁻¹, the kon was 1.34e+06 M⁻¹ s⁻¹ and the t1/2 came to 19.7 min. For the same molecule, in test [3], the EC50 was determined as 1.25 nM and the “Ratio of MFI (100 nM/0 nM)” value was found to be 305. This molecule also gave an IC50 in test [4] of 9.4 nM.

B5: H4H15483P (antibody, human IgG4, V domains shown)
VH: QVQLQQWGAGLLPPSETLSLICAVYGGSFSGYYWSWIRQPPGKGLEWIGEINHRGSTNYNPSLKSRATISVDTSKNQFSLKLSSVTAADTAVYYCSRGEDYYDSSGYSYYFDYWGQGTLVTVSS
VL: EIVLTQSPATLSLSPGERATLSCRASQSVSSYLAWYQQKPGQAPRLLIYDASNRATGIPARFSGSGSGTDFTLTISSLEPEDFAVYYCQQRSNWPLTFGGGTKVEIK
notes: as for B2
On to B5, for which, in test [1], the Kd was found to be 1.43 nM, the koff was 0.00111 s⁻¹, the kon stood at 774000 M⁻¹ s⁻¹ and the t1/2 is 10.4 min. Moreover, in test [2], the Kd turned out to be 0.215 nM, the koff worked out at 0.000298 s⁻¹, the association rate constant (kon) was 1.38e+06 M⁻¹ s⁻¹ and the t1/2 came to 38.8 min. For the same molecule, in test [3], the EC50 was determined as 2.31 nM and the “Ratio of MFI (100 nM/0 nM)” value amounted to 206. The same molecule showed a half-inhibitory concentration (IC50) in test [4] of 16 nM.

B6: H4sH14813N (antibody, human IgG4 S228P, kappa, V domains shown)
VH: QVQLQQWGAGLLKPSETLSLTCAVYGGSFSGYYWNWIRQPPGKGLEWVGEISHRGSTNYNPSLKSRVTISLDTSKNQFSLKLTSVTAADTAVYYCSRDEELEFRFFDYWGQGTLVTVSS
VL: EIVLTQSPATLSLSPGERATLSCRASQSVSSYLAWYQQKPGQAPRLLVYGASNRATGIPARFSGSGSGTDFTLTISSLEPEDFAFYYCQQRSNWPLTFGGGTKVEIKR
notes: H4sH = modified human IgG4 Fc
In the case of B6, in test [1], the Kd turned out to be 0.266 nM, the dissociation rate constant (koff) was 0.000154 s⁻¹, the kon was 578000 M⁻¹ s⁻¹ and the t1/2 amounted to 75.1 min. Besides, in test [2], the dissociation constant (Kd) turned out to be 0.0295 nM, the koff was 0.000101 s⁻¹, the kon came to 3.42e+06 M⁻¹ s⁻¹ and the t1/2 is 114 min. Also, in test [3], a half-maximal effect (EC50) was put at 1.18 nM and the “Ratio of MFI (100 nM/0 nM)” value amounted to 197. This molecule also displayed an IC50 in test [4] of 10 nM.

B7: H4H14813N (antibody, human IgG4, V domains shown)
VH: QVQLQQWGAGLLKPSETLSLTCAVYGGSFSGYYWNWIRQPPGKGLEWVGEISHRGSTNYNPSLKSRVTISLDTSKNQFSLKLTSVTAADTAVYYCSRDEELEFRFFDYWGQGTLVTVSS
VL: EIVLTQSPATLSLSPGERATLSCRASQSVSSYLAWYQQKPGQAPRLLVYGASNRATGIPARFSGSGSGTDFTLTISSLEPEDFAFYYCQQRSNWPLTFGGGTKVEIK
notes: as for B2
On to B7, for which, in test [1], the Kd amounted to 0.284 nM, the koff was determined as 0.000152 s⁻¹, the kon worked out at 535000 M⁻¹ s⁻¹ and the t1/2 turned out to be 76 min. In addition, in test [2], the Kd is 0.0274 nM, the koff was found to be 0.000117 s⁻¹, the kon stood at 4.27e+06 M⁻¹ s⁻¹ and the t1/2 is 98.8 min. Besides, in test [3], the EC50 came out at 1.44 nM and the “Ratio of MFI (100 nM/0 nM)” value was 208. In addition, the IC50 in test [4] came out at 10 nM.
